This note sets out measurements from PMC8651787, “Tankyrase-1-mediated degradation of Golgin45 regulates glycosyltransferase trafficking and protein glycosylation in Rab2-GTP-dependent manner” (Communications Biology, 2021).

Positions count from the first letter of the chain named. In names and notes the source's numbering stands.

In test [1] the target is T1, TNKS1-Arc1 (183–335aa) (human, UniProt O95271 183-335).
T1 construct: human Tankyrase-1 (TNKS1), ARC (Ankyrin Repeat Cluster) domain 1, residues 183-335; pET24b plasmid; also called Arc I; ArcI; source: E. coli BL21 (DE3), purified (Ni-NTA Agarose); not shown: His6, C-terminal, kept
T1 sequence (looked up): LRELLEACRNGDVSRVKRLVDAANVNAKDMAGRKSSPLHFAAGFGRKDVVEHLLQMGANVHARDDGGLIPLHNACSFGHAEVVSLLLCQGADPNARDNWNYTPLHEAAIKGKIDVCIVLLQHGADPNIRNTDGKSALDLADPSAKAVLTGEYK
Kind of test: pull-down; 150 μg GST fusion protein on Glutathione-Sepharose 4B beads; 0.1 μM prey protein; 25 mM Hepes pH 7.4, 150 mM NaOAc, 0.2% Triton, 1 mM DTT; 4 °C, 2 h; western blot. To be noted: both partners purified.

The target of test [2] is T1, TNKS1-Arc1 (183–335aa). The test is described as follows: BLI; Octet RED96; GST fusion proteins loaded on GST biosensors at 10 ug/ml; TNKS1-Arc1 as analyte (0.16-4.56 μM); 25 °C; 25 mM Hepes pH 7.4, 150 mM NaOAc, 0.2% Triton, 1 mM DTT; steady-state fit. Conditions: both partners purified.

As a reminder, the Kd is the constant that tells how readily two partners part at equilibrium. Read a low Kd as higher affinity.

B1: GST-Golgin45 N70 S49D (domain or fragment, human, UniProt Q9H2G9 1-70, looked up)
chain: MTTKNLETKVTVTSSPIRGAGDGMETEEPPKSVEVTSGVQSRKHHSLQDPWKKAVPSESPGVLQLGKMLT
notes: Golgin45 (BLZF1), N-terminal residues 1-70, phospho-mimicking S49D in the Cdc2 consensus 49SPWK52; also called GST-Golgin45 S49D mutant; source: E. coli BL21 (DE3), purified (Glutathione HiCap Matrix)
As to B1, the binding result with TNKS1-Arc1 (183–335aa) [1] was “binds”.

B2: GST-Golgin45 N-terminal domain (amino acid 1–70) (domain or fragment, human, UniProt Q9H2G9 1-70, looked up)
chain: B1 chain with D49S
notes: Golgin45 (BLZF1), N-terminal residues 1-70; pGEX-6p-1 plasmid; also called GST-Golgin45 N70 wt; Golgin45 N70 WT; source: E. coli BL21 (DE3), purified (Glutathione HiCap Matrix)
Regarding B2, the Kd in the test with TNKS1-Arc1 (183–335aa) [2] is roughly 1460 nM.

B3: GST-Golgin45 N70 S15D (domain or fragment, human, UniProt Q9H2G9 1-70, looked up)
chain: B1 chain with S15D, D49S
notes: Golgin45 (BLZF1), N-terminal residues 1-70, phospho-mimicking S15D in the Cdc2 consensus 15SPIR18; also called S15D mutated GST-Golgin45; Golgin45 S15D mutant; source: E. coli BL21 (DE3), purified (Glutathione HiCap Matrix)
In the test with TNKS1-Arc1 (183–335aa) [2], B3 returned a Kd of 2780 ± 80 nM.
